Source: patent publication US20160340442A1 (Dana-Farber, published 2016)
Residue numbers refer to the chain shown, from its start. Values belong to the binder of their own block, whether it stands above or below them.

Columns and labels:
[1] = biological target: T1, cell surface MUC1-C protein (human, UniProt P15941 1098-1255); test: surface staining, flow cytometry, K562 CML cells; 2 µg antibody/sample
T1 construct: MUC1-C subunit as carried by MUC1-positive cell lines and patient cells (or in their lysates for Western blot); also called MUC1 C-ter; MUC1 on MUC1-positive cells
T1 sequence: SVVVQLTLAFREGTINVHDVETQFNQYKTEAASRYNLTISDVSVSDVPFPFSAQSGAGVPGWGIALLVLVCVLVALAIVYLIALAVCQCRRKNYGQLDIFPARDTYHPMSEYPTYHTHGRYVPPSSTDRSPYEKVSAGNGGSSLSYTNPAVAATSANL

[2] = biological target: T1, cell surface MUC1-C protein; test: surface staining, flow cytometry, KU812 CML cells; 2 µg antibody/sample
[3] = biological target: T1, cell surface MUC1-C protein; test: surface staining, flow cytometry, K562 MUC1-siRNA cells (MUC1 silenced); 2 µg antibody/sample
[4] = biological target: T1, cell surface MUC1-C protein; test: surface staining, flow cytometry, K562 CTL-siRNA cells; 2 µg antibody/sample; fixed samples kept at 4° C. for 4 days
[5] = biological target: T1, cell surface MUC1-C protein; test: surface staining, flow cytometry, ZR-75-1 cells (third row); 2 µg antibody/sample
[6] = biological target: T1, cell surface MUC1-C protein; test: flow cytometry, ZR-75-1, MCF-7 and HCT-116/MUC1 cells
From the text: FIG. 35. […] Reactivity was detected by immunofluorescence FACScan.
FIG. 36. […] Reactivity was detected by immunofluorescence FACScan.

MUC1-C/ECD protein [7] = biological target: T2, MUC1-C/ECD protein (human, UniProt P15941 1098-1155); test: ELISA, plates coated with the antigen, multiple antibody concentrations
T2 construct: also called MUC1-C/ECD antigen; the antigen
T2 sequence: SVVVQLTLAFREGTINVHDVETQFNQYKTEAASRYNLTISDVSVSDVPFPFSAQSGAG
Method: FIG. 38. ELISA assays were performed by coating plates with the antigen and reactivity with multiple different concentrations of purified antibodies 7B8, 4G5 and 2B11.

P2 [8] = biological target: T3, P2 (human); test: ELISA, peptide as competitor (indirect: peptide did not inhibit binding to the antigen)
T3 construct: Synthetic overlapping peptide of MUC1-C/ECD; also called peptide P2
T3 peptide: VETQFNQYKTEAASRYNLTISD

P1 [9] = biological target: T4, P1 (human); test: as above
T4 construct: Synthetic overlapping peptide of MUC1-C/ECD; also called peptide P1
T4 peptide: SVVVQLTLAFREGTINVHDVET

P3 [10] = biological target: T5, P3 (human); test: as above
T5 construct: Synthetic overlapping peptide of MUC1-C/ECD; also called peptide P3
T5 peptide: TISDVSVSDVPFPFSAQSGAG

[11] = biological target: T1, cell surface MUC1-C protein; test: cell-based or functional assay
MUC1-C/ECD protein [12] = biological target: T2, MUC1-C/ECD protein; test: ELISA, plates coated with the MUC1-C/ECD antigen
MUC1-CQC→AQA mutant = biological target: T6, MUC1-CQC→AQA mutant (human, UniProt P15941 1098-1255); test: flow cytometry, HCT116/MUC1-CQC→AQA mutant cells
T6 construct: also called HCT116/MUC1-CQC→AQA mutant cells
T6 chain: T1 sequence with C87A, C89A
Method: FIG. 37. HCT116/MUC1-wild-type and HCT116/MUC1-CQC→AQA mutant cells 7B8 for 30 min, washed, incubated with goat anti-mouse immunoglobulin-flourescein-conjugated antibody (Santa Cruz Biotechnology), and fixed in 1% formaldehyde/PBS. Reactivity was detected by immunofluorescence FACScan.

[13] = biological target: T1, cell surface MUC1-C protein; test: flow cytometry, ZR-75-1 cells, competitive format with purified MUC1-C/ECD protein; 7B8 binding not abrogated
Method: (§1) Characterized of 7B8 and 3D1 antibodies. Linear epitope mapping of 7B8 and 3D1 clones was performed using three overlapping peptides spanning the entire MUC1-C/ECD region (58 amino acids) were synthesized. ELISA assays were performed using 7B8 or 3D1 purified antibodies in the presence or absence of P1, P2 or P3 peptides. […] Conformational epitope mapping of 7B8 and 3D1 was performed using eight critical individual point mutants in the MUC1-C/ECD region by ELISA. […] These findings indicate that D19 is a part of the conformational core/pocket for 3D1 binding. ZR-75-1 breast carcinoma cells were used determine 7B8 or 3D1 antibody binding in a competitive format with MUC1-C/ECD and analyzed by FLOW. […] These findings indicate that the conformational binding epitopes of 7B8 and 3D1 are different. The sequencing results for hybridoma 3D1 is shown in FIG. 50 and is discussed in greater detail below.

[14] = biological target: T7, bacterially-produced MUC1-C/ECD protein (human, UniProt P15941 1098-1155); test: Western blot
T7 construct: Produced in bacteria; also called MUC1 proteins made in bacteria; p58-mFc
T7 sequence: T2 sequence

MUC1-C/ECD-hFc = biological target: T8, MUC1-C/ECD-hFc (human, UniProt P15941 1098-1155); test: hybridoma screen, indirect ELISA or Western blot; antigen MUC1-C/ECD-mFc or MUC1-C/ECD-hFc
T8 construct: The screening text says the antigen was MUC1-C/ECD-mFc or MUC1-C/ECD-hFc; the hFc form is used here because hFc alone was the negative control; also called hFc-MUC1-C/ECD; MUC1-ECD-hFc; not shown: human Fc (hFc)
T8 sequence: T2 sequence
Method: ELISA. ELISA was performed by coating the plates with 100 μl of 1 μg/ml MUC1-C/ECD-hFc or MUC1-C/ECD-mFc or hFc (as negative control). Hybridoma supernatants or immune sera were screened against the coated proteins by incubating with the plate for 1 hr. The bound antibody was detected by incubating with specific secondary antibody (anti-mouse Ig, F(ab)₂ specific) conjugated to HRP (horse radish peroxidase). Further, the reaction was developed with HRP-specific substrate for 30 min and the plate was read at 405 nm.
Fusion for Hybridoma and Primary Screening. Based on the results obtained from the ELISA, spleen from both mice was used for fusion with myeloma cells to generate hybridoma. Spleen-myeloma fusion was performed by mixing mouse myeloma cells sp2/0-Ag14 and splenocytes in 1:3 ratio in the presence of polyethylene glycol (PEG). Post fusion cell culture was carried out in selective HAT medium. Hybridomas selected by indirect ELISA or Western blot using recombinant MUC-C/ECD-mFc or MUC1-C/ECD-hFc as the antigen and were subjected to subcloning by limiting dilution protocol until the clones become stable. The fusion clones obtained from the spleen of mouse 1 is termed as 315.1 clones and similarly the one from mouse 2 is called 315.2 clones. The fusion clones obtained from the spleen of mouse 1 from other immunization batch is termed as 384 clones. […]

P2 [15] = biological target: T3, P2; test: ELISA on coated MUC1-C/ECD antigen with or without peptide (indirect)
Method: as §1

P1 [16] = biological target: T4, P1; test: as above
Method: as §1

P3 [17] = biological target: T5, P3; test: as above
Method: as §1

MUC1-C/ECD protein [18] = biological target: T2, MUC1-C/ECD protein; test: ELISA, plates coated with the MUC1-C/ECD antigen; soluble MUC1-C/ECD protein also abrogated 3D1 binding to cells

B1: 315.1.6A6.C11.G5 (antibody, V domains shown)
VH: QVQLKESGPGLVAPSQSLSMTCTVSGFSLTTYGVHWVRQPPGKGLEWLVVIWSDGSTTYNSPLKSRLSISRDNSKSQVFLKMNSLQADDTAIYYCAKNYLGSLDYWGQGTSVTVSS
VL: DVVLTQTPLSLPVSLGDQASISCRSSQSLVHNNGDTYLHWYLQKPGQSPKLLIYKVSNRFSGVPDRFSGSGSGTDFTFKISRVEAEDLGVYFCSQTTHVPLTFGAGTKLELK
notes: also called MAb 6A6; Clone 6A6
flow cytometry value (unit not given) [1]: 9.31 | flow cytometry value (unit not given) [2]: 31.6 | flow cytometry value (unit not given) [3]: 6.26 | flow cytometry value (unit not given) [4]: 22.6 | flow cytometry value (unit not given) [5]: 2.16

B2: 315.2.8F1.D2.D1 (antibody, V domains shown)
VH: EVQLVESGGGLVQPGESLKLSCESNEYEFPSHDMSWVRKTPEKRLELVAAINSDGGSTYYPDTMERRFIISRDNTKKTLYLQMSSLRSEDTALYYCVRLYYGNVMDYWGQGTSVTVSS
VL: B1 VL with L4M, N32S, D35N, H39Y, F78L, T96S
notes: also called Clone 8F1; P58-8F1
flow cytometry value (unit not given) [1]: 9.58 | flow cytometry value (unit not given) [2]: 39.9 | flow cytometry value (unit not given) [3]: 6.37 | flow cytometry value (unit not given) [4]: 34.4 | flow cytometry value (unit not given) [5]: 1.57

B3: 315.2.8E1.F7.C3.H7.H8.F5 (antibody, V domains shown)
VH: B2 VH
VL: B1 VL with L4M, N32S, D35N, H39Y, F78L, T96S
notes: also called MAb 8E1; Clone 8E1
flow cytometry value (unit not given) [1]: 8.65 | flow cytometry value (unit not given) [2]: 39.6 | flow cytometry value (unit not given) [3]: 6.91 | flow cytometry value (unit not given) [4]: 22.4 | flow cytometry value (unit not given) [5]: 1.61

B4: 400.6.4G5.E11.G2 (antibody, IgG1, V domains shown)
VH: QITLKESGPGILQPSQTLSLTCSFSGFSLSTSGMGVSWIRQPSGKGLEWLSHIYWDDDKRYNPSLKSRLSISKDTSRNQVFLKITSVDTADTATYYCAPGVSSWFPYWGPGTLVTVSA
VL: SIVMTQTPKFLPVSAGDRVTVTCKASQSVGNYVAWYQQKPGQSPKLLIYFASNRYSGVPDRFTGSGSGTDFTFTISSVQVEDLAVYFCQQHYIFPYTFGSGTKLEIK
binding result [6]: binds | binding result (MUC1-C/ECD protein [7]): binds | binding result (P2 [8]): no binding | binding result (P1 [9]): no binding | binding result (P3 [10]): no binding

B5: 400.6.2B11.D5.F6 (antibody, IgG1, V domains shown)
VH: QVQLQQSGAELMKPGASVKISCKAIGFTFNYFWIEWVKQRPGHGLEWIGEILPGTGSTNYNEKFKGKAIFTADTSSNTAYMQLRSLTSEDSAVYYCVRYDYTSSMDYWGQGTSVTVSS
VL: NIVMTQSPKSMSMSVGERVTLTCKASENVGTYVSWYQQKPEQSPKLLIYGASNRYTGVPNRFTGSGSATDFTLTISSVQAEDLADYYCGQSYSYPWTFGGGTKLEIK
binding result [6]: binds | binding result (MUC1-C/ECD protein [7]): binds | binding result (P2 [8]): no binding | binding result (P1 [9]): no binding | binding result (P3 [10]): no binding

B6: 7B8-MMAF (other)
VH: QVQLQQPGAELVKPGASEKLSCKASGHTFTSYWMHWVKQRPGQGLEWIGEINPSNGRTYYNENFKTKATLTVDKYSSSASMQLRSLTSEDSAVYYCASDGDYVSGFAYWGQGTTLTVSS
VL: DIVLTQSPGSLAVSLGQSVTISCRASESVQYSGTSLMHWYQQKPGQPPKLLIYGASNVETGVPARFSGSGSGTDFSLNIHPVEEDDIAMYFCQQNWKVPWTFGGGTKLEIK
modifications: monomethyl auristatin F (MMAF) via cleavable linker valine-citrulline-p-aminobenzyl (Val-Cit-PAB); attachment residues not stated
dose-dependent inhibition of proliferation in ZR-75-1 breast carcinoma cells, IC50 [11]: ~0.86 nM

Results, then the binder that gave them:

binding result (MUC1-C/ECD protein [12]): binds | binding result (MUC1-CQC→AQA mutant): binds | binding result [13]: binds | binding result (P2 [8]): no binding | binding result (P1 [9]): no binding | binding result (P3 [10]): no binding
B7: 400.6.7B8.G3.G1 (antibody, IgG2a, V domains shown)
VH: B6 VH
VL: B6 VL

binding result [14]: binds | binding result (MUC1-C/ECD-hFc): binds
B8: 384.1.2H11.F2.G6 (antibody, V domains shown)
VH: QIQLVQSGPELKKPGETVKTSCKASGYTFTGYSMHWVKQAPGKGLKWMGWINTETGEPTYADDFKGRFALSLETSASTTYLQINNLKNEDTATYFCVRGTGGDDWGQGTTLTVSS
VL: DVVMTQTPLSLPVSLGDQASISCRSSQSLVHSNGNTYLHWYLQKPGQSPKLLIYKVSNRFSGVPDRFSGSGSGTDFTLKINRVEAEDLGVYFCSQGTHVPPTFGGGTKLEIKR
notes: The printed entries run a few residues into the constant regions; also called 384.2H11.F2.G6

binding result (P2 [15]): no binding | binding result (P1 [16]): no binding | binding result (P3 [17]): no binding | binding result (MUC1-C/ECD protein [18]): binds
B9: 441.3.3D1.D6.D11.B1.F10 (antibody, V domains shown)
VH: QVQLQQSGAELVRPGSSVKISCKTSGYAFSNFWMNWVKQRPGQGLEWIGQIYPGDGDTNYNGKFKGKATLTADKSSSTAYMQLSSLTSEASAVYFCARSYYRSAWFAYWGQGTLVSVSA
VL: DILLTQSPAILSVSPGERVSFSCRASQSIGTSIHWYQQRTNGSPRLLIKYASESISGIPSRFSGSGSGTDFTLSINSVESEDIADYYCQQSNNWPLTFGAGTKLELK
notes: Mouse hybridoma antibody; also called Anti-Muc-1; 536064-1
